The values that follow come from US12139531B2, “Compositions and methods useful in promoting milk production” (The Regents of the University of California, priority 2019, dated 2024).

The target in one assay is T1, ROBO2 (Homo sapiens, UniProt Q9HCK4).
T1 construct: expressed in transfected cells; host or cells: Cos7
T1 sequence (Q9HCK4 22-1378): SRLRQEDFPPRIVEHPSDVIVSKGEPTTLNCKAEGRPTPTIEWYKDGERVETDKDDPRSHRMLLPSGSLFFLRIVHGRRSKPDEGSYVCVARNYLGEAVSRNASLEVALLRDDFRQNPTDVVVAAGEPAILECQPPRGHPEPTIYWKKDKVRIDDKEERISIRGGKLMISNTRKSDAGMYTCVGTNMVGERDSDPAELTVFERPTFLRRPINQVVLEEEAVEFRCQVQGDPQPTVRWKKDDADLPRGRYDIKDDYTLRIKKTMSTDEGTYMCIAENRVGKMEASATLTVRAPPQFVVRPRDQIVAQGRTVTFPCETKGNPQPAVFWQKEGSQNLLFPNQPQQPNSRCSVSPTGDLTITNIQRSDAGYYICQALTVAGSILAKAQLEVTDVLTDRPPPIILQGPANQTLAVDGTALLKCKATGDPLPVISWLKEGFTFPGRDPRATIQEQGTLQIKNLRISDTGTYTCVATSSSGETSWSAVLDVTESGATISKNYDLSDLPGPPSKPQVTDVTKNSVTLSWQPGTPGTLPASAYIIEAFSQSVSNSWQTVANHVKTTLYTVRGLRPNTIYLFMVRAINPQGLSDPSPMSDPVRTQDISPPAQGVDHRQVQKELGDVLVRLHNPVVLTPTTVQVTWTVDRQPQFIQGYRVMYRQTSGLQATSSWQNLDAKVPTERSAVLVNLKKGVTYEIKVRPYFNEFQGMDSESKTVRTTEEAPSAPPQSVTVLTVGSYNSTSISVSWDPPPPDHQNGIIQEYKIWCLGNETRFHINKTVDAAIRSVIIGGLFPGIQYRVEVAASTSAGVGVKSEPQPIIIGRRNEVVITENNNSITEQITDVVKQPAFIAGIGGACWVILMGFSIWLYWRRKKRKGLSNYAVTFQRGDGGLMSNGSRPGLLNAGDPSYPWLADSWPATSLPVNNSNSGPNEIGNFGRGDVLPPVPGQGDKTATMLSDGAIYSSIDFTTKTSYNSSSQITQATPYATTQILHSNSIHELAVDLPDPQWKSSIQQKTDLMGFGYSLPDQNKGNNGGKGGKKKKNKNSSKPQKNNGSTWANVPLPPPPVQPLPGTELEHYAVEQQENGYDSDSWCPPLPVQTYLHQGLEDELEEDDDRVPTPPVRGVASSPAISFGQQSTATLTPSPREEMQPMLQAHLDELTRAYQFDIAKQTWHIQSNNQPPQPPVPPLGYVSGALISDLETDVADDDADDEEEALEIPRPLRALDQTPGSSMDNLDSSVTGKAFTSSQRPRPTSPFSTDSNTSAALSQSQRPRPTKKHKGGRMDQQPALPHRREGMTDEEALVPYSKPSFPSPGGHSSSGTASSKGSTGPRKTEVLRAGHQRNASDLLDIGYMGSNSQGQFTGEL
In words: ECD binding assay on Cos7 cells overexpressing Robo2. Conditions: Cos7 cells overexpressing Robo2, sodium azide, 1H incubation, immunostaining. The procedure: Soluble ROBO1 ECD fragments ROBO1-Ig2 and ROBO1-Ig5 generated in the presence of heparin were used in a dome assay. […] Because treatment with heparin had only a modest positive effect on ROBO1 ECD production and a deleterious effect on their function (FIG. 6C, E), the use of heparin to generate soluble ROBO1 ECD fragments was not pursued. The ability of a ROBO1 ECD fragment to bind ROBO2 receptors was tested by overexpressing Robo2 in Cos7 cells, treating cells with sodium azide to prevent protein internalization and then incubating cells with ROBO1-Ecto-HA 1H prior to fixation and immunostaining.

Another assay addresses T2, DCC (Homo sapiens, UniProt P43146).
T2 construct: expressed in transfected cells
Kind of assay: ECD binding assay on cells overexpressing DCC. Here is the method: FIG. 6: ROBO1 extracellular domains. (A) Cartoon showing domain structure of the ROBO1 extracellular domain (ECD) panel (B) Western blot of ROBO1 ECDs and control DCC ECDs in lysates and conditioned media of HEK cells overexpressing plasmid constructs. (C) Dot blot assay of media (left) and quantification (right) of ROBO1-Ig5 secretion from HEK cells overexpressing Robo-Ig5 in the absence and presence of heparin (300 ng/ml). […] (F) ECD binding assay using ROBO1-Ecto and cells overexpressing ROBO2 (top, green) and cells overexpressing DCC (bottom, green). ROBO1-Ecto-HA (red) binds to ROBO2, but not to DCC.

Assay [1] concerns HC11 cells. In words: HC11 dome assay (milk dome formation on differentiation in DIP media). It counts as cell-based, mouse. The conditions noted are these: HC11 cells, increasing ECD concentration. Here is the method: To investigate ROBO1 function during alveologenesis, Robo1 gene expression was inhibited in HC11 cells (Robo1 KD). HC11 cells are a well-established, prolactin-responsive model of lactation,^19,20. Cells in which Robo1 gene expression was not inhibited are referred to as WT or Robo1+/+ herein. To measure milk production, cells were grown to confluence and then primed by treatment with epidermal growth factor (EGF, 10 ng/ml). The EGF is administered for three days in combination with charcoal-stripped fetal bovine serum, followed by one day of charcoal-stripped fetal bovine serum in the absence of EGF. These primed cells are then differentiated by treatment with dexamethasone (1 μg/ml), insulin (5 μg/ml) and prolactin (Prl, 5 μg/ml) media (DIP media) for between 3 and 5 days (FIG. 2A). Differentiation (Dif) results in the development of milk-filled domes (FIG. 2B). […] If the cells were left undifferentiated (Undif), there was little dome formation in either WT or Robo1−/− cells (FIG. 2B). Next, tissue from Robo1 knockout mice (Robo1−/−) and wild type mice (WT or Robo1+/+) mice was analyzed. Mammary glands were harvested from pregnant day 18 WT and Robo1−/− animals and alveologenesis analyzed by serially sectioning, carmine staining and then quantifying the area occupied by alveoli in sections located at top, middle and bottom portions of the tissue.
Dome number formation in response to a titration of ROBO1 ECD fragments was quantified. […] A bovine ROBO1-Ig5 construct was also tested in this assay and, as with the rat constructs, more domes were formed in response to treatment with higher concentrations of […] (FIG. 7H).
HC11 cells were grown in RPMI 1640 media (Gibco) supplemented with 10% fetal bovine serum (BioFluid Technologies), 5 μg/mL insulin (Sigma), and 10 ng/ml epidermal growth factor (EGF; Sigma). To induce differentiation in HC11 cells, confluent plates were given fresh media (RPMI 1640 media supplemented with 5% charcoal-stripped fetal bovine serum (BioFluid Technologies), 5 μg/mL insulin, and 10 ng/ml epidermal growth factor (EGF; Sigma) for 3 days followed by 24 hours of priming in priming medium (RPMI 1640 media supplemented with 5% charcoal-stripped fetal bovine serum (BioFluid Technologies), and 5 μg/mL insulin. After priming, DIP medium (RPMI 1640 media supplemented with 5% charcoal-stripped fetal bovine serum (BioFluid Technologies), 10^−6 M dexamethasone (Sigma), 5 μg/mL insulin, and 5 μg/mL prolactin (National Hormone and Peptide program) was added with fresh media every 24 hours.

For assay [2], the system named is HC11 cells. In words: Western blot analysis of WAP and PLIN2 in HC11 cells. Conditions: ECD titration. In kind it is cell-based, mouse. Here is the method:
To determine whether the promotion of dome formation also results in higher milk production, HC11 cells were differentiated in the presence or absence of ROBO1-ECD fragments that were added to cells simultaneously with DIP media. Cells were harvested and the expression of WAP and Lalba assessed by RT-qPCR. […] WAP expression levels were not increased in cells treated with DCC-Ig4 (FIG. 7K). Next, Western blot analysis of WAP and PLIN2 was performed on cells treated with ROBO1-Ig5 and ROBO1-Ecto.
Protein lysates were prepared by directly lysing adherent cells in 1× sample buffer supplemented with 5% beta-mercaptoethanol and boiled for 5 minutes. Protein lysate was resolved by SDS-PAGE and transferred to a PVDF for 90 minutes at 400 mA or overnight at 30 mA. Primary antibodies were used at the concentration indicated in Table 1 and incubated overnight at 4° C. HRP conjugated secondary antibodies (Jackson Labs) were used at 1:3000 and incubated for 45 minutes at room temp. All proteins were detected using Clarity ECL (BioRad) using a BioRad Chemi-Doc MP Imager and quantified using ImageLab software as previously described a.

In a further assay the test system is Notch signaling. In words: RT-qPCR of Notch effector expression (Hey1, Hes1) in HC11 cells. The conditions noted are these: HC11 cells treated with ROBO1-ECD fragments. In kind it is cell-based, mouse. Here is the method: To examine the effects of ROBO1-ECD fragments on Notch signaling, HC11 cells were treated with ROBO1-ECD fragments and Notch effector expression assessed. […] In addition, HC11 cells were treated with ROBO-Ig5 during differentiation. These cells were then fractionated and a Western blot performed to detect HES1 and NOTCH4-ICD (FIG. 8B).
Total RNA was harvested from cells lysed in TRIzol reagent (Invitrogen) and phase separated according to manufacturer's protocol with an additional overnight RNA precipitation stem in ethanol (Macias et al., 2011). The RNA was further purified with TURBO DNase (Ambion) treatment. Total RNA quality was analyzed by agarose gel electrophoresis and quantified with an ND-1000 spectrophotometer (NanoDrop). cDNA libraries were prepared from 1 μg of total RNA using iScript cDNA synthesis kit (BioRad). Quantitative RT-PCR was performed in triplicates using light Cycler 480 SYBR Green I Master (Roche) and quantified using BioRad CFX'Connect Real-Time System and CFX Manager software (BioRad). Results were normalized to GAPDH.
(Real-time PCR tracks product formation cycle by cycle.)

Assay [3] has as its system HC11 cells. Kind of assay: Bodipy 493/503 neutral lipid staining of differentiated HC11 cells. It counts as cell-based, mouse. The conditions noted are these: Bodipy493/503 staining. The procedure: To determine whether the ROBO1 ECD fragments influence NOTCH4 signaling, HC11 assays were performed to monitor dome formation using both phase contrast microscopy (FIG. 7A, B, top), and fluorescent microscopy using hydrophobic Bodipy493/503 that binds neutral lipids (FIG. 7A, B, bottom). Undifferentiated (Undif) cells are distinct with interconnecting processes visible in phase contrast and little/no Bodipy staining (FIG. 7A). Upon differentiation and prolactin treatment, small lipid droplets accumulate that appear as dark-rimmed circles in phase contrast (FIG. 7B, top) and as punctate green circles by Bodipy staining (FIG. 7B, bottom).
Place cells in a half-volume of buffer or media. Make a 2× solution (2 μg/ml=7.6 μM) of Invitrogen™ BODIPY™ 493/503 dye in 0.5 mL volume of the same pre-warmed buffer or media (no cells, no BSA or serum) and mix vigorously to mechanically emulsify this solution. Immediately add to the solution of cells, mix and incubate up to 30 min.

Entries after “also recorded” stand apart in the source; their conditions may differ.

T2 sequence (P43146 26-1447, species assumed): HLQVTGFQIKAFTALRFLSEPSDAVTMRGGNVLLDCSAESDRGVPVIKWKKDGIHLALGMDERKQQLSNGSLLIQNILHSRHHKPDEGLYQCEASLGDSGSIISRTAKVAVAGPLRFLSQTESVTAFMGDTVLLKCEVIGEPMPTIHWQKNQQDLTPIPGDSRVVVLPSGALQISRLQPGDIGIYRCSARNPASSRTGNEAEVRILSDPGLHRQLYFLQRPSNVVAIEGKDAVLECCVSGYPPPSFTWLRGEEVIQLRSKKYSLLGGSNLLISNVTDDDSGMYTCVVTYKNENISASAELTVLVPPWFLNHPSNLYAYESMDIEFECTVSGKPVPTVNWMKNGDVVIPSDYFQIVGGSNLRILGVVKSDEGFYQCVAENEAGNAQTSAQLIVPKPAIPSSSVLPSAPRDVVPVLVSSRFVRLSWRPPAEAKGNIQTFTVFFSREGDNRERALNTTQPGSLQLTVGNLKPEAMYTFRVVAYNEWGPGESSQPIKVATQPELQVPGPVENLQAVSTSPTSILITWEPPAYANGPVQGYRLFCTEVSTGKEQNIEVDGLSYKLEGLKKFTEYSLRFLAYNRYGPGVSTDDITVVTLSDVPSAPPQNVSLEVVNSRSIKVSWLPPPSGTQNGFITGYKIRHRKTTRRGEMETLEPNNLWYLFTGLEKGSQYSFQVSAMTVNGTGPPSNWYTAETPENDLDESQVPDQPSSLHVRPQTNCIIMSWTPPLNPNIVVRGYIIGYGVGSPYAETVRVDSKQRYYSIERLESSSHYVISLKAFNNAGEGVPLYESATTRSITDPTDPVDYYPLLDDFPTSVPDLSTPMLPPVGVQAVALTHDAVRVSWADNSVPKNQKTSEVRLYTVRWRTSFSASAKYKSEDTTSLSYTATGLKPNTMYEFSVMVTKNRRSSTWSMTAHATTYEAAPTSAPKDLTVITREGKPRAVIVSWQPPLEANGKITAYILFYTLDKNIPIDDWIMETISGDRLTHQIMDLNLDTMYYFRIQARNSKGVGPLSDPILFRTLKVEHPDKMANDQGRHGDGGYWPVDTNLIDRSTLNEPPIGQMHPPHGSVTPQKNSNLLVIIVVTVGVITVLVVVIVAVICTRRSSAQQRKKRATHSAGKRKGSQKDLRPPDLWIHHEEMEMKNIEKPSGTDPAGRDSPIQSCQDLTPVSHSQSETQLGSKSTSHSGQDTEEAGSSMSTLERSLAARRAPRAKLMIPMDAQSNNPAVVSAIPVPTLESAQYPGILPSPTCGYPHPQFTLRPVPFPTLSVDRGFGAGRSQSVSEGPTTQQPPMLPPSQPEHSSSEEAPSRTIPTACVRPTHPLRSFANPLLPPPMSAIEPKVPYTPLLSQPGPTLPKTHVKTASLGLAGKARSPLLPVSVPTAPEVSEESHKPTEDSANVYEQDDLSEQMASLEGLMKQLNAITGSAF

B1: ROBO1-Ecto-HA: ROBO1-Ecto fused to HA (hemagglutinin) tag (protein)
chain: SRLRQEDFPPRIVEHPSDLIVSKGEPATLNCKAEGRPTPTIEWYKGGERVETDKDDPRSHRMLLPSGSLFFLRIVHGRKSRPDEGVYICVARNYLGEAVSHNASLEVAILRDDFRQNPSDVMVAVGEPAVMECQPPRGHPEPTISWKKDGSPLDDKDERITIRGGKLMITYTRKSDAGKYVCVGTNMVGERESEVAELTVLERPSFVKRPSNLAVTVDDSAEFKCEARGDPVPTVRWRKDDGELPKSRYEIRDDHTLKIRKVTAGDMGSYTCVAENMVGKAEASATLTVQEPPHFVVKPRDQVVALGRTVTFQCEATGNPQPAIFWRREGSQNLLFSYQPPQSSSRFSVSQTGDLTVTNVQRSDVGYYICQTLNVAGSIITKAYLEVTDVIADRPPPVIRQGPVNQTVAVDGTLTLSCVATGSPVPTILWRKDGVLVSTQDSRIKQLESGVLQIRYAKLGDTGRYTCTASTPSGEATWSAYIEVQEFGVPVQPPRPTDPNLIPSAPSKPEVTDVSKNTVTLLWQPNLNSGATPTSYIIEAFSHASGSSWQTVAENVKTETFAIKGLKPNAIYLFLVRAANAYGISDPSQISDPVKTQDVPPTTQGVDHKQVQRELGNVVLHLHNPTILSSSSVEVHWTVDQQSQYIQGYKILYRPSGASHGESEWLVFEVRTPTKNSVVIPDLRKGVNYEIKARPFFNEFQGADSEIKFAKTLEEAPSAPPRSVTVSKNDGNGTAILVTWQPPPEDTQNGMVQEYKVWCLGNETRYHINKTVDGSTFSVVIPSLVPGIRYSVEVAASTGAGPGVKSEPQF
modifications: left off: small tags and cut ends
notes: ROBO1-Ecto fused to HA (hemagglutinin) tag
In the case of B1, the “binding to ROBO2” value with ROBO2 is “binds”. In addition, the “binding to DCC” value with DCC is on record as “not to DCC”.

B2: ROBO1-Ecto: recombinant soluble ROBO1 construct comprising the entire extracellular domain (protein)
chain: B1 chain
modifications: left off: small tags and cut ends
notes: recombinant soluble ROBO1 construct comprising the entire extracellular domain
In the case of B2, the “dome formation in response to a titration of ECD fragments” value in the assay on HC11 cells [1] is “higher rates of dome formation”. Moreover, in the assay with HC11 cells [2], the PLIN2 protein expression result is “approximately two-fold; also recorded: increased” and the WAP protein expression result was “approximately two-fold; also recorded: increased”. Moreover, in the assay with Notch signaling, the Hes1 expression result is listed as “lower expression; also recorded: decreased” and the Hey1 expression result is “lower expression; also recorded: decreased”. In addition, the “number of cells completely surrounded by lipid droplets” value in the assay with HC11 cells [3] was “higher number of cells completely surrounded by lipid droplets”.

B3: DCC-Ig2: extracellular domain of Deleted in Colorectal Cancer comprising two Ig domains, HA tagged, negative control (protein, listed as Rattus norvegicus)
chain: FTSLHFVSEPSDAVTMRGGNVLLNCSAESDRGVPVIKWKKDGLILALGMDDRKQQLPNGSLLIQNILHSRHHKPDEGLYQCEASLGDSGSIISRTAKVMVAGPLRFLSQTESITAFMGDTVLLKCEVIGDPMPTIHWQKNQQDLNPIPGDSRVVVLPSGALQISRLQPGDSGVYRCSARNPASTRTGNEAEVRILSDPGL
modifications: HA tag
notes: extracellular domain of Deleted in Colorectal Cancer comprising two Ig domains, HA tagged, negative control
For the molecule B3, in the assay on HC11 cells [1], the “dome formation in response to a titration of ECD fragments” value is recorded as “not observed”. Also, the “binding to ROBO2” value with ROBO2 is “does not bind”.
